Test results published in the nanobody polyreactivity screen of Harvey et al. (2022).

experiment: yeast display, Sf9 membrane polyspecificity reagent, FACS + sequencing; frameworks hold sequencing errors
Procedure, shortened: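 Genes from sorted yeast were amplified by colony PCR, read by MiSeq 2 × 250 sequencing and filtered on CDR length. These cells carried a synthetic nanobody library in Saccharomyces cerevisiae BJ5465 and were sorted by FACS into low and high (top ~1%) gates on anti-HA and streptavidin fluorescence. Polyreactivity is labelled according to the gate of origin.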

Row | Sequence | polyreactivity (PSR sort gate)
1 | QVQIGESGGGLVQAGGSLRLSCAASGSIIVGYAMGWYRQAPGKEREVVAAISKRGTSTYYADSVKGRFTISRDNAKNTVYLQMNSLKPEETAVYDCNALDLVNHGWTERLDQDYYYWGQGTQVTVSS | high polyreactivity
2 | QVQLVESGGGLVHAGGSLRLSCAASGSIFPDNTMGWYRQAPGKERELVAAIDGRGGTTYYADSVKGRFTISRDNAKNTVYLQMNSLKPEDTAVYYCARDIGHSARYDYWGQGTQVTVSS | low polyreactivity
3 | QVQLVESGGGLVQAGGSLRLSCAASGRIFPPYGMGWYRQAPGKERELVAGITSDGSTNYADSVKGRFTISRDNAKNTVYLQMNSLKPEDTAVYFCAADQGSWYYYPVYYYGGDYWGQGTQVTVSS | low polyreactivity
4 | QVQLVESWGGLVQAGGSLRLSCAASGRIFFVNAMGWYRQAPGKERELVAAITSGGSTSYADSVKGRFTISRDNAKNTVFLQLNSLKAEDTAVYYCAAVFYRRFDYWGQGTQVTVSS | low polyreactivity
5 | QVQLVESGGGLVQAGGSLRLSCASSGSTFSANTKGWYRQAPGKERELVAAINSSGGSSTYYADSVKGRFTISRDNAKNTVYLQMKSLKPEDTAVYYCAAENSVPRGVLGGEFDYWGQGTQVTVSS | low polyreactivity
6 | QVQLVESGGGLVQAGGSLRLSCAASGTYRLYAMGWYRQAPGKEREFVAAITYGGGGTYYADSVKGRFTISRDNAKNTVYLQMNSLKPEDTAVYYCAADLYLTDTDVEYYYWGQGTKVTVSS | low polyreactivity
7 | QVQLVESGGGLVQAGGSLRLSCAASGRTFRYYAKGWYRQAPGKERELVAAITVTVTSTFYADSVKGRFTISRDNAKNTVYLQMNSLKPEDTAVYYCAKVDRQSPGQYYYWGQGTQVTVSS | low polyreactivity
8 | QVQLGESGGGLVQAGGSLRLICAASGSIFDVNAMGWYRQAPGKERELVAAISDSGGSTYYADSVKGRFTISRDNAKNTVYLQMNSLKPEDTAVYYCNADWSWYNYDDFDYWGQGTQVTVSS | low polyreactivity
9 | QVQLVDSVGGLVQAGGSLRLSCAASGSIFNPYDMGWSRQAPGKERELVAAIDWSGGSTYYADSVKGRFTISRDNAKNTVYLQMNSLKPEDTAVYYCNARPDYSISLPGYPTLSEDDEYWGQGTQVTVSS | low polyreactivity
10 | QVQLVESGGGLVQAGGSLRLSCAASGSTFGVNAMGWYRQAPGKERELVAAIRSAVPTYYADSVKGRFTISRDNAMNTVYLQMNSLKPEETAVYYCAARHRESQRRYDYWGQGTQVTVSS | high polyreactivity
11 | QVHLEESGGGLVQAGGSLRLSCAASGRTFYANTMGWYRPAPGKERELVAGITSGGSTSYADSVKGRFTISRDNAKNTVYLQMNSLKPEDTAVYYCAAQFYRYTATGYYADGYWGQGTQVTVSS | low polyreactivity
12 | QVQLVESGGGLVQAGGSLRLSCAASGSTFDPNAKGWYRQEPGKERELVAAISKSGGRTYYADSVKGRFTISRDNAKNTVYLQMNSLKPEDTAVYYCNARFGSRYNFFGLRYNYWGLGTQVTVSS | high polyreactivity
13 | QVQLVESGGGIVQAGGSLRLSCAASGSIYGYAMGWYRQAPGKERELVAAISGRGGRTYYADSVKGRFTISRDNAKNTVYLQMNSLKPEDTAVYYCNVQWRYPYHYTVDYWGQGTQVTVSS | high polyreactivity
14 | QVQLVESGGGLVQAGGRLRLSCAASGSTFKIYAMGWYRQAPGKERELVARITGRGGSTYYADSVKGRFTISRDNAKNTVYLQLNSLKPEDSAVYYCAARVYTYYYDLHKRFYWGHGTQVTVSS | high polyreactivity
15 | QVQLVESGGGLVQAGGSLRLSCAASGRIFTRNAMGWYRQAPGKERELVATISAGGGRTSYADSVKGRFTISRDNAKNTVELQMNSLKPEDTAVYYCAARGQVGYYWGQGTQVTVSS | high polyreactivity
16 | QVQLVESGGGLVQAGGSLRLSCAASGRIFIYNAMGWSRQAPGIERELVARIRDRGDSTNYADSVKGRFTISRDNAKNTVYLQMNSLKPEDTAVYYCAAQPWLRYYYWGQGTQVTVSS | low polyreactivity
17 | QVQLVESGGGLVQAGGSLRISCAASGSTFSYYTMGWYRQAPGKERELVAAISRTGGSTYYADSVKGRFTISRDNAKNTVYLQMNSLKPEDTAVYYCAADWTRGSPGMDYWVQGTQVTVSS | high polyreactivity
18 | QVQLVESGGGLVQAGGSLRLSCAASGSPFVDNDMGWSRQAPGKDRELVAAAITARGGSTYYADSVKGRFTISRDNAKNTVYLQMNSLKPEDTAVYYCAAGRPGELDYWGQGTQVTVSS | low polyreactivity
19 | QVQLVESGGGLVQAGGSLRLSCAASGRTFQEYAMGWYRQAPGKERELVADISDGGSTNYADSVKGRFTISRDNAKNTVYLLMKSLKPEDTAGYYCAAARPGWRVGYDYWGQGTQVTVSS | low polyreactivity
20 | QVQLVESGGGLVQAGGSLRLSCAASGSTFRYYAMGWSRQAPGKERELVAAISRSGTSTYYADSVKGRFTISRDNAKNTVYLQMNSLKPEDTAVYYCAADWHSKIGKGYDYWGQGTQVTVSS | high polyreactivity

Row | Sequence | polyreactivity (PSR sort gate)
21 | QVQLVESGGGLVQAGGSLRLSCAASGRIFWGSTMVWYRQAPGKEMELVAAITYRGATTYYADSVKGRFTISRDNAKNTVYLQMNSLKPEDTAVYYCAAEYYYTYGYWGQGTQVTVSS | high polyreactivity
22 | QVQRVESGGGLFQAGRSLRLSCAASGFIFSTYAMGWYRQAPGKERELVAAISSGGSTYYADSVKGRFTISRDNAKNTVYLQMNSLKPEDTAVDYCAADLGAYWFSYYYWGQGTQLTVSS | high polyreactivity
23 | QVQLVESGGGLVQAGGSLRLSCAASGRTLVKNAMGWYRQAPGKERELVAAISTSGGRTYYADSVKGRFTISRDNAKNTVYLQMNSLKPEDTAVYYCAAVLYATRPVYGFDSWGQGTQVTVSS | high polyreactivity
24 | QVQLVESGGGLVQAGGSLRLSCAASGFTFIRYAMGWYRQAPGKERELVATISRSGGRTYYADSVKGRFTISRDNAKNTVYLQMNSLKPEDTAVYYCNAEAIVLNGGGYWGQGTQVTVSS | high polyreactivity
25 | QVQLVESVGGLVQAGGSLRLSCAASGFISYYYAMGWYRQAPGKEREFVAAITSSGGSTRYADSVKGRFTISRDNAKNPVYLQMNSLKPEDTAVYYCAARKARPPFPHPFDYYWGQGTQVTVSS | low polyreactivity
26 | QVQLVESGGGLVQAGGSLRLSCAASGRIFYPNAMGWYRQAPGKERELVAAITSGGRTYYADSVKGRFTISRDNAKNTVYLQMNSLKPEDTAVYYCNARYSFWRSGPGYQGVDYWGQGTQVTVSS | high polyreactivity
27 | QVQLVESGGGLVQAGGSLRLSCAASGSIFYYNAMGWYIQAPGKEREFVAAISSSGGSTYYADSVMGRFTISRDNAKNNVYLQMYRLKPEDTAVYYCAAKLRHWAHHTKYDYWGQGTQLTVSS | low polyreactivity
28 | QVQLVESGGGLVQAGGSLRLSCAASGRIFRYYAMGWYRQAPGKERELVASINSGGSTYYADSVKGRFTISRDNAKNTVYLQLNSLKPEDTAVYYCAKRVGHSRHADNDYWGQGTQVTVSS | low polyreactivity
29 | QVQLVESGGGLVQAGGSLRLSCAASGRIFWYYAIGWYRQAPGKEREIVAAISRSGGTTYYADSVKGRFTISRDNAKNTVYLQMNSLKPEDTAVYYCAAVYHAYTGYEAWYEYDYWGQGTQVTVSS | high polyreactivity
30 | QVHLVESGGGLVQAGGSLRLSCDASGSTFYCYAMGWYRQAPGKERELVASISWSGGRSYYADSVKGRFTISRDNAKNTDYLQMNSLYPEDTAVYYCAARRKGRYDYWGQGTQVTVSS | high polyreactivity
31 | QVQHVESGGGLVQAGGSLRLSCAASGFIFSSYAIGWYRQAPGKEREFVASIRRRGGSTYYAYSVKGRFTISRDNAKNTVILQMNRLIPEDTAVYYCAREVYRHFAPVGYDYWGQGTQVTVSS | high polyreactivity
32 | QVQLVESGGGLEQAGGSLRLSCAASGRTFYYYAMGWYRQAPGKERELVAAIRWRGGRTYADSVKGRFTISRDNAKNTVYLQMKSLKPEDTAVYYCAVDSFYRHASLYDYWGQGTQVTVSS | high polyreactivity
33 | QVQLVESGGGLVQAGGSLRLSCAASGRTFISNAMGWYRQAPGKERELVATINSGGSTNYADSVKGRFTISRDNAKNTVYLQMNSLKPEDTAVYYCARRVRYKHYDYWGQGTQVTVSS | high polyreactivity
34 | QVQLVESGGGLVQAGGSLRLSCAASGSTFGHYAMGWYIQAPGKERELVAGITDTDNHELRRLCEGRFTISRDNAKNTVYLQMNSLKPEDTAVYYCNADDTYYPLCGITGYDYWGQGTQVTVSS | low polyreactivity
35 | QVQLVESGGGLVQAGGSLRLTCAASGRIFYDKSMGWYRQSPGKERELVAAIRRSGGDTYYADSVKGRFTISRDIAKNTVYLQMNSLKTVDTAVYYCADTYSDYGRRYGYWGQGTLVTVSS | high polyreactivity
36 | QDQHVESGGGLVQAGGSLRLSSAASGFTFKGNAMGWYRQGPGKVMELVATITQSAGSTYYADSVKGRFSISRDNAKNTVYLQMNSLKPEDTGVYFCNADPITLYYYSWYNYWGQGTQVTVSS | low polyreactivity
37 | QVQLEESGGGLVQAGGSLRISCAASGSTFWRYTMGWYRQEPGKERELVAAISWSGDGTYYADSVKGRFTISRDNAKNTVYLQMNSLKPEDTAVYYCAAEVYYANGYDYDYWGQGTQVTVSS | low polyreactivity
38 | QVQLVESGGGLVQAGGSLRLSCAASGSIFVRYATMGWYRQAPGKERELVAAISRSGGSTYYADSVKGRFTISRDNAKNTVYLQMNSLKPEDTAVYYCANVSPSLRASGYDYWGQGTQVTVSS | high polyreactivity
39 | QVQLVESGGGLVQAGGSLRLSCAASGSTFGGYTMGGYRQAPGKERELVADITSSGSTNYADSLKGRFTISRDNAKNSVYLQMNSLKPEDTAVYYCAVRTYPGRFWYWGVDMVYWGQGTQVTVSS | low polyreactivity
40 | QVQLVESGGGLVQAGGSLRLSCAASGFTFRYYVMGWSRQAPGKESELVAAICWSGGSTYYADSVKVRFTISRDNAKNTVYLQMNRLKPEDTAFYYCNARRYFRTSQQPLYDYWGQGTQVTVSS | high polyreactivity
